Reference: paper PMC7118906 (2020)

Molecular target: GPI (Homo sapiens, UniProt P06744)
Experiment: MST

Kd: 8.59 nM
B1: GPD2 (protein)
chain: ADCISEPVNREPPSREAQLLTLQNTSEFDILVIGGGATGSGCALDAVTRGLKTALVERDDFSSGTSSRSTKLIHGGVRYLQKAIMKLDIEQYRMVKEALHERANLLEIAPHLSAPLPIMLPVYKWWQLPYYWVGIKLYDLVAGSNCLKSSYVLSKSRALEHFPMLQKDKLVGAIVYYDGQHNDARMNLAIALTAARYGAATANYMEVVSLLKKTDPQTGKVRVSGARCKDVLTGQEFDVRAKCVINATGPFTDSVRKMDDKDAAAICQPSAGVHIVMPGYYSPESMGLLDPATSDGRVIFFLPWQKMTIAGTTDTPTDVTHHPIPSEEDINFILNEVRNYLSCDVEVRRGDVLAAWSGIRPLVTDPKSADTQSISRNHVVDISESGLITIAGGKWTTYRSMAEDTINAAVKTHNLKAGPSRTVGLFLQGGKDWSPTLYIRLVQDYGLESEVAQHLAATYGDKAFEVAKMASVTGKRWPIVGVRLVSEFPYIEAEVKYGIKEYACTAVDMISRRTRLAFLNVQAAEEALPRIVELMGRELNWDDYKKQEQLETARKFLYYEMGYKSRSEQLTDRSEISLLPSDIDRYKKRFHKFDADQKGFITIVDVQRVLESINVQMDENTLHEILNEVDLNKNGQVELNEFLQLMSAIQKGRVSGSRLAILMKTAEENLDRRVPIPVDRSCGGL
